Source: patent US20090004644 (Conceptual MindWorks, Inc, published 2009)

Key:
[1] = molecular target: Botulinum neurotoxin type A light chain (UniProt P0DPI1 P0DPI1:2-448)
[2] = molecular target: Botulinum neurotoxin type B heavy chain (UniProt B1INP5 B1INP5:442-1291)
[3] = molecular target: Botulinum neurotoxin type A heavy chain (UniProt P0DPI1 P0DPI1:449-1296)
[4] = molecular target: Botulinum neurotoxin type B light chain (UniProt B1INP5 B1INP5:2-441)
Sequence of Botulinum neurotoxin type B light chain (B1INP5 2-441, one chain of several): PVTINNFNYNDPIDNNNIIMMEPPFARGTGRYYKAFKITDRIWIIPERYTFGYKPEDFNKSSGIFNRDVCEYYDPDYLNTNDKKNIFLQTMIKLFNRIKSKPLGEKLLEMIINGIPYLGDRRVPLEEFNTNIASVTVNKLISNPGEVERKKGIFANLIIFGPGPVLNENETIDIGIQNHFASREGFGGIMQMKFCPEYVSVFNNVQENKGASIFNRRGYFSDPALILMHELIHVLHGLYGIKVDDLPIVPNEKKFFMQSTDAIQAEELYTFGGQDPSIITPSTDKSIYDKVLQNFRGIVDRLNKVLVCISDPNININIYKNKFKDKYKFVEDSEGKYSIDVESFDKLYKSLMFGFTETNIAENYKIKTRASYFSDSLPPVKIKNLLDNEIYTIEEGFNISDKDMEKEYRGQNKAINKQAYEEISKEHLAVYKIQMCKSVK

Sequence of Botulinum neurotoxin type B heavy chain (B1INP5 442-1291, one chain of several): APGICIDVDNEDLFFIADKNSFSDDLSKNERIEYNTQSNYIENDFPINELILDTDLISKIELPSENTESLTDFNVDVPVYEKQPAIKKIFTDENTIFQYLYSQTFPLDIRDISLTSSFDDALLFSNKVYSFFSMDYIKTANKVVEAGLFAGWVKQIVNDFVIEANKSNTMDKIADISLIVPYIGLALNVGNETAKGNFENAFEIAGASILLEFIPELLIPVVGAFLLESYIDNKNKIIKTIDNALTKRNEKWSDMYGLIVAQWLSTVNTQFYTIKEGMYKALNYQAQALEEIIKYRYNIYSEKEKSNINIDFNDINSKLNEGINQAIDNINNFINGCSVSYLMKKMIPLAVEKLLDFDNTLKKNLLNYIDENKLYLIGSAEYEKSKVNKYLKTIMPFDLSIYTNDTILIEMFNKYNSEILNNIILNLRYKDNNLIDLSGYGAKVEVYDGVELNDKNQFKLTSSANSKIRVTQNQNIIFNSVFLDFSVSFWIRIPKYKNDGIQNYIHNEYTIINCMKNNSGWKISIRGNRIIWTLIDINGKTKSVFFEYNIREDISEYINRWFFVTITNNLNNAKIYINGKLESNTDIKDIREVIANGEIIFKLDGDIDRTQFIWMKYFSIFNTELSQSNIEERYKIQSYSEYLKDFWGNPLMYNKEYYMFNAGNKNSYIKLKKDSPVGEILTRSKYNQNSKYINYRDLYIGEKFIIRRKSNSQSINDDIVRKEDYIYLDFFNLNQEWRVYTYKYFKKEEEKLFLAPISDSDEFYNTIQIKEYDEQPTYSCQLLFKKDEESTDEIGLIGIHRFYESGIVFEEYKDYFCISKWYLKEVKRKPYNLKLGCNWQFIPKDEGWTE
Sequence of Botulinum neurotoxin type A heavy chain (P0DPI1 449-1296, one chain of several): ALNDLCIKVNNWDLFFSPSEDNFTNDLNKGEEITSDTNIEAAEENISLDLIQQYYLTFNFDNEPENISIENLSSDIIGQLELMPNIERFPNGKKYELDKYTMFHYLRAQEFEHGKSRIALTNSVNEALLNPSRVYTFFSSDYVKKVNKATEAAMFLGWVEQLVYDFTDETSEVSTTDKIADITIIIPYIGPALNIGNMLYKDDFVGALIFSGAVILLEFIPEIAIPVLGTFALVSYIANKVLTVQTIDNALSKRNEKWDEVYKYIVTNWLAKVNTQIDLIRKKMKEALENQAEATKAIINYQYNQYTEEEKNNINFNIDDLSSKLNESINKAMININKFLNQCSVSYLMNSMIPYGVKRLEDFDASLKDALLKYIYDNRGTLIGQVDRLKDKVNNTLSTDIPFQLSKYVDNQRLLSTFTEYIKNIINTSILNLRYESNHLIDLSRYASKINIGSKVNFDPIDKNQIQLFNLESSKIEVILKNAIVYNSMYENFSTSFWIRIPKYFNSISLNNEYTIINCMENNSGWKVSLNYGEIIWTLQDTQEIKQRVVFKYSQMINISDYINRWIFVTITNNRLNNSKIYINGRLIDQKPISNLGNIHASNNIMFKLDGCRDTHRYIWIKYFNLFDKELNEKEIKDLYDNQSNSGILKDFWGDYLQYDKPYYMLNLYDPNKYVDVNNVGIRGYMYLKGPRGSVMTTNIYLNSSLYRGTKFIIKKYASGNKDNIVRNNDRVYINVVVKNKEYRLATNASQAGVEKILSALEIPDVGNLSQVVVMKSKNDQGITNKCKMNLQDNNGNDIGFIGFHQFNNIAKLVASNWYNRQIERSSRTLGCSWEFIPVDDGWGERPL
Sequence of Botulinum neurotoxin type A light chain (P0DPI1 2-448, one chain of several): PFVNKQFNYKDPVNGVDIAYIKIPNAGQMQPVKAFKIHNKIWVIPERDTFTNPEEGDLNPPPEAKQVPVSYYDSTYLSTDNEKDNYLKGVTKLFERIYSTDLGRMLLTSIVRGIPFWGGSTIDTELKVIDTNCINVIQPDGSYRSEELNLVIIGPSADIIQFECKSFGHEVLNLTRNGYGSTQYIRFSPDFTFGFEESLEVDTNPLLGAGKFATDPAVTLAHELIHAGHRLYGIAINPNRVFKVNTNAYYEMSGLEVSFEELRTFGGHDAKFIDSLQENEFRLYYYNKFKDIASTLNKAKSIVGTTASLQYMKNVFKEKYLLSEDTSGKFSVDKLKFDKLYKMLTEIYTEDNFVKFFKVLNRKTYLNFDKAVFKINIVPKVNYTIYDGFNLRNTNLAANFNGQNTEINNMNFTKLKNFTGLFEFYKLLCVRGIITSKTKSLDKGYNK

B1: LCA 1(+) (DCE-1) (ssDNA)
DNA: AGTCTAGAGGGCCCCAGAATACACCCGACAACTAGATACCCATCAAAAGTCCAGCAAAGGATGCAGGGGT
Q: Does B1 bind [1]?
A: Result: binds

Q: Does B1 bind [2]?
A: Result: no binding

Q: Does B1 bind [3]?
A: Result: no binding

B2: LCB 2(+) (DCE-2) (ssDNA)
DNA: AGTCTAGAGGGCCCCAGAATTATCCACTAGCGGGAAGTAGTACATCTCACCCAGCAAAGGATGCAGGGGT
Q: Does B2 bind [4]?
A: Result: binds

B3: 4(+) SELEX holotoxin aptamer (DCE-4) (ssDNA)
DNA: CATCCGTCACACCTGCTCTGCTATCACATGCCTGCTGAAGTGGTGTTGGCTCCCGTATCA
Q: Does B3 bind [2]?
A: Result: binds

Q: Does B3 bind [3]?
A: Result: binds

B4: 3(+) SELEX LCA aptamer (DCE-3) (ssDNA)
DNA: CATCCGTCACACCTGCTCTGGGGATGTGTGGTGTTGGCTCCCGTATCAAGGGCGAATTCT
Q: Does B4 bind [1]?
A: Result: binds

Q: Does B4 bind [2]?
A: Result: binds

Q: Does B4 bind [4]?
A: Result: binds

Q: Does B4 bind [3]?
A: Result: binds
